From the RNAGym collection of RNA variant scans (doi:10.7554/elife.90254) come the findings set out here.

The labels stand for the following.
B1: OR4K15 (parent)
chain: GUUAACGGUCAUAGGCCAUGGAAACUAGGAGCACCAUUUCGCUGCCAGUGAAGAAAUGAACAAAGAAAAUCUGGGCCAGGCAGGCAUCAAAAGAAAUAGUCUUGCGCUCAACCAGAAAGUCUGUAAUCAUUUUAAGGGUA

This data set covers variants of B1. Put plainly: self-cleavage, relative activity (ratio to wild type); higher = more cleavage; in vitro, sequencing; the parent is a self-cleaving ribozyme.
Turning to GUUAACGGUCAUAGGCCAUGGAAACUAGGGGCACCAUUUCGCUGCCAGUGAAGAAAUGAACAAAGAAAAUCUGGGCCAGGCAGGCAUCAAAAGAAAUAGUCUUGCGCUCAACCAGAAAGUCUGUAAUCAUUUUAAGGGUA, the self-cleavage came to 1.28.
Regarding GUUAACGGUCAUAGGCCAUGGAAACUAGGGGCACCAUUUCGCUGCCAGUGAAGAAAUGAACAAAGAAAAUCUGGGCCAGGCAGGCAUCAAAAGGAAUAGUCUUGCGCUCAACCAGAAAGUCUGUAAUCAUUUUAAGGGUA, the self-cleavage stood at 1.29.
The figure for GUUAACGGUCAUAGGCCAUGGAAACUAGGGGCACCAUUUCGCUGCCAGUGAAGAAAUGAACAAAGAAAAUCUGGGCCAGGCGGGCAUCAAAAGAAAUAGUCUUGCGCUCAACCAGAAAGUCUGUAAUCAUUUUAAGGGUA is 0.6; for GUUAACGGUCAUAGGCCAUGGAAACUAGGGGCACCAUUUCGCUGCCAGUGAAGAAAUGAACAAAGAAAAUCUGGGCCAGGCUGGCAUCAAAAGAAAUAGUCUUGCGCUCAACCAGAAAGUCUGUAAUCAUUUUAAGGGUA it is 0.25.
On to GUUAACGGUCAUAGGCCAUGGAAACUAGGGGCACCAUUUCGCUGCCAGUGAAGAAAUGAACAAAGAAAAUCUGGGCCAGGCAGGCAUCAAAAGAAAUAGUCUUGCGCUCAACCCGAAAGUCUGUAAUCAUUUUAAGGGUA, for which the self-cleavage turned out to be 0.07.
Take GUUAACGGUCAUAGGCCAUGGAAACUAGGGGCACCAUUUCGCUGCCAGUGAAGAAAUGAACAAAGAAAAUCUGGGCCAGGCAGGCAUCAAAAGAAAUAGUCUUGCGCUCAGCCAGAAAGUCUGUAAUCAUUUUAAGGGUA: the self-cleavage stood at 0.05.
With GUUAACGGUCAUAGGCCAUGGAAACUAGGGGCACCAUUUCGCUGCCAGUGAAGAAAUGAACAAAGAGAAUCUGGGCCAGGCAGGCAUCAAAAGAAAUAGUCUUGCGCUCAACCAGAAAGUCUGUAAUCAUUUUAAGGGUA the figure was 0.91; with GUUAACGGUCAUAGGCCAUGGAAACUAGGGGCACCAUUUCGCUGCCAGUGAAGAAAUGAACAAGGAAAAUCUGGGCCAGGCAGGCAUCAAAAGAAAUAGUCUUGCGCUCAACCAGAAAGUCUGUAAUCAUUUUAAGGGUA, 1.35.
With GUUAACGGUCAUAGGCCAUGGAAACUAGGGGCACCAUUUCGCUGCCAGUGAAGAAAUGAACAAAGAAAAUCUGGGCCAGGCAGGCGUCAAAAGAAAUAGUCUUGCGCUCAACCAGAAAGUCUGUAAUCAUUUUAAGGGUA, the self-cleavage was determined as 1.41.
As to GUUAACGGUCAUAGGCCAUGGAAACUAGGGGCACCAUUUCGCUGCCAGUGAAGAAAUGAACAAAGAAAAUCUGGGCCAGGCAGGCUUCAAAAGAAAUAGUCUUGCGCUCAACCAGAAAGUCUGUAAUCAUUUUAAGGGUA, the self-cleavage is 1.37.
With GUUAACGGUCAUAGGCCAUGGAAACUAGGGGCACCAUUUCGCUGCCAGUGAAGAAAUGAACAAAGAAAAUCUGGGCCAGGCAGGCAUCAAAAGACAUAGUCUUGCGCUCAACCAGAAAGUCUGUAAUCAUUUUAAGGGUA the figure was 1.26; with GUUAACGGUCAUAGGCCAUGGAAACUAGGGGCACCAUUUCGCUGCCAGUGAAGAAAUGAACAAAGAAAAUCUGGGCCAGGCAGGCAUCAAAAGAUAUAGUCUUGCGCUCAACCAGAAAGUCUGUAAUCAUUUUAAGGGUA, 1.42.
With GUUAACGGUCAUAGGCCAUGGAAACUAGGGGCACCAUUUCGCUGCCAGUGAAGAAAUGAACAAAGAAGAUCUGGGCCAGGCAGGCAUCAAAAGAAAUAGUCUUGCGCUCAACCAGAAAGUCUGUAAUCAUUUUAAGGGUA, the self-cleavage amounted to 1.49.
For the variant GUUAACGGUCAUAGGCCAUGGAAACUAGGGGCACCAUUUCGCUGCCAGUGAAGAAAUGAUCAAAGAAAAUCUGGGCCAGGCAGGCAUCAAAAGAAAUAGUCUUGCGCUCAACCAGAAAGUCUGUAAUCAUUUUAAGGGUA, the self-cleavage stood at 0.79.
For the variant GUUAACGGUCAUAGGCCAUGGAAACUAGGGGCACCAUUUCGCUGCCAGUGAAGAAAUGAACAAAGAAAAUCUGGGCCAGGCAGGCAUCUAAAGAAAUAGUCUUGCGCUCAACCAGAAAGUCUGUAAUCAUUUUAAGGGUA, the self-cleavage worked out at 1.09.
As for GUUAACGGUCAUAGGCCAUGGAAACUAGGGGCACCAUUUCGCUGCCAGUGAAGAAAUGAACAAAGAAAAUCUGGGCCAGGCAGGCAUCGAAAGAAAUAGUCUUGCGCUCAACCAGAAAGUCUGUAAUCAUUUUAAGGGUA, the self-cleavage came to 0.71.
The figure for GUUAACGGUCAUAGGCCAUGGAAACUAGGGGCACCAUUUCGCUGCCAGUGAAGAAAUGAACAAAGAAAAUCUGGGCCAGGCAGGCAUCCAAAGAAAUAGUCUUGCGCUCAACCAGAAAGUCUGUAAUCAUUUUAAGGGUA is 0.8; for GUUAACGGUCAUAGGCCAUGGAAACUAGGGGCACCAUUUCGCUGCCAGUGAAGAAAUGUACAAAGAAAAUCUGGGCCAGGCAGGCAUCAAAAGAAAUAGUCUUGCGCUCAACCAGAAAGUCUGUAAUCAUUUUAAGGGUA it is 1.18.
On to GUUAACGGUCAUAGGCCAUGGAAACUAGGGGCACCAUUUCGCUGCCAGUGAAGAAAUGAACAUAGAAAAUCUGGGCCAGGCAGGCAUCAAAAGAAAUAGUCUUGCGCUCAACCAGAAAGUCUGUAAUCAUUUUAAGGGUA, for which the self-cleavage was found to be 1.17.
On to GUUAACGGUCAUAGGCCAUGGAAACUAGGGGCACCAUUUCGCUGCCAGUGGAGAAAUGAACAAAGAAAAUCUGGGCCAGGCAGGCAUCAAAAGAAAUAGUCUUGCGCUCAACCAGAAAGUCUGUAAUCAUUUUAAGGGUA, for which the self-cleavage came to 1.07.
With GUUAACGGUCAUAGGCCAUGGAAACUAGGGGCACCAUUUCGCUGCCAGUGAAGGAAUGAACAAAGAAAAUCUGGGCCAGGCAGGCAUCAAAAGAAAUAGUCUUGCGCUCAACCAGAAAGUCUGUAAUCAUUUUAAGGGUA the figure was 1.21; with GUUAACGGUCAUAGGCCAUGGAAACUAGGGGCACCAUUUCGCUGCCAGUGAAGAGAUGAACAAAGAAAAUCUGGGCCAGGCAGGCAUCAAAAGAAAUAGUCUUGCGCUCAACCAGAAAGUCUGUAAUCAUUUUAAGGGUA, 1.14; with GUUAACGGUCAUAGGCCAUGGAAACUAGGGGCACCAUUUCGCUGCCAGUGAAGAAGUGAACAAAGAAAAUCUGGGCCAGGCAGGCAUCAAAAGAAAUAGUCUUGCGCUCAACCAGAAAGUCUGUAAUCAUUUUAAGGGUA, 1.27.
As to GUUAACGGUCAUAGGCCAUGGAAACUAGGGGCACCAUUUCGCUGCCAGUGAAGAAUUGAACAAAGAAAAUCUGGGCCAGGCAGGCAUCAAAAGAAAUAGUCUUGCGCUCAACCAGAAAGUCUGUAAUCAUUUUAAGGGUA, the self-cleavage is 1.02.
The figure for GUUAACGGUCAUAGGCCAUGGAAACUAGGGGCACCAUUUCGCUGCCAGUGAAGAAAUGAACCAAGAAAAUCUGGGCCAGGCAGGCAUCAAAAGAAAUAGUCUUGCGCUCAACCAGAAAGUCUGUAAUCAUUUUAAGGGUA is 1.38; for GUUAACGGUCAUAGGCCAUGGAAACUAGGGGCACCAUUUCGCUGCCAGUGAGGAAAUGAACAAAGAAAAUCUGGGCCAGGCAGGCAUCAAAAGAAAUAGUCUUGCGCUCAACCAGAAAGUCUGUAAUCAUUUUAAGGGUA it is 1.13; for GUUAACGGUCAUAGGCCAUGGAAACUAGGGGCACCAUUUCGCUGCCAGUGAAGAAAUGAACAAAGAAAAUCUGGGCCAGGCAGGCAUCAAAAGAAGUAGUCUUGCGCUCAACCAGAAAGUCUGUAAUCAUUUUAAGGGUA it is 1.25.
For the variant GUUAACGGUCAUAGGCCAUGGAAACUAGGGGCACCAUUUCGCUGCCAGUGAAGAAAUGAACAAAGAAAAUCUGGGCCAGGCAGGCAUCAAAAGAAUUAGUCUUGCGCUCAACCAGAAAGUCUGUAAUCAUUUUAAGGGUA, the self-cleavage stood at 1.72.
With GUUAACGGUCAUAGGCCAUGGAAACUAGGGGCACCAUUUCGCUGCCAGUGAAGAAAUGAACAAAGGAAAUCUGGGCCAGGCAGGCAUCAAAAGAAAUAGUCUUGCGCUCAACCAGAAAGUCUGUAAUCAUUUUAAGGGUA, the self-cleavage was found to be 1.21.
Regarding GUUAACGGUCAUAGGCCAUGGAAACUAGGGGCACCAUUUCGCUGCCAGUGAAGAAAUGAACAAAGUAAAUCUGGGCCAGGCAGGCAUCAAAAGAAAUAGUCUUGCGCUCAACCAGAAAGUCUGUAAUCAUUUUAAGGGUA, the self-cleavage came to 1.22.
Consider GUUAACGGUCAUAGGCCAUGGAAACUAGGGGCACCAUUUCGCUGCCAGUGAAGAAAUGAACAAAGAAAAUCUGGGCCAGGCAGGCAUCAAUAGAAAUAGUCUUGCGCUCAACCAGAAAGUCUGUAAUCAUUUUAAGGGUA, for which the self-cleavage amounted to 1.67.
Regarding GUUAACGGUCAUAGGCCAUGGAAACUAGGGGCACCAUUUCGCUGCCAGUGAAGAAAUGAACAAAGAAAAUCUGGGCCAGGCAGGCAUCAAGAGAAAUAGUCUUGCGCUCAACCAGAAAGUCUGUAAUCAUUUUAAGGGUA, the self-cleavage turned out to be 0.24.
Regarding GUUAACGGUCAUAGGCCAUGGAAACUAGGGGCGCCAUUUCGCUGCCAGUGAAGAAAUGAACAAAGAAAAUCUGGGCCAGGCAGGCAUCAAAAGAAAUAGUCUUGCGCUCAACCAGAAAGUCUGUAAUCAUUUUAAGGGUA, the self-cleavage amounted to 1.17.
As to GUUAACGGUCAUAGGCCAUGGAAACUAGGGGCACCAUUUCGCUGCCAGUGAAGAAAUGAACAAAGAAAAUCUGGGCCAGGCAGGCAUCAAAAGAAAUAGUCUUGCGCUCGACCAGAAAGUCUGUAAUCAUUUUAAGGGUA, the self-cleavage amounted to 0.15.
The figure for GUUAACGGUCAUAGGCCAUGGAAACUAGGGGCACCAUUUCGCUGCCAGUGAAGAAAUGAACAAAGAAAGUCUGGGCCAGGCAGGCAUCAAAAGAAAUAGUCUUGCGCUCAACCAGAAAGUCUGUAAUCAUUUUAAGGGUA is 1.27; for GUUAACGGUCAUAGGCCAUGGAAACUAGGGGCACCAUUUCGCUGCCAGUGAAGAAAUGAACAAAGAAAAUCUGGGCCAGGCAGGCAUCAGAAGAAAUAGUCUUGCGCUCAACCAGAAAGUCUGUAAUCAUUUUAAGGGUA it is 1.37; for GUUAACGGUCAUAGGCCAUGGAAACUAGGGGCACCAUUUCGCUGCCAGUGAAGAAAUGAACAAAGAAAAUCUGGGCCUGGCAGGCAUCAAAAGAAAUAGUCUUGCGCUCAACCAGAAAGUCUGUAAUCAUUUUAAGGGUA it is 0.41.
Take GUUAACGGUCAUAGGCCAUGGAAACUAGGGGCACCAUUUCGCUGCCAGUGAAGAAAUGAACAAAGAAAAUCUGGGCCGGGCAGGCAUCAAAAGAAAUAGUCUUGCGCUCAACCAGAAAGUCUGUAAUCAUUUUAAGGGUA: the self-cleavage stood at 0.11.
With GUUAACGGUCAUAGGCCAUGGAAACUAGGGGCACCAUUUCGCUGCCAGUGAAGAAAUGAACAAAGAAAAUCUGGGCCAGGCAGGCAUCAAAAGAAAUAGUCUUGCGCUCAACCAGCAAGUCUGUAAUCAUUUUAAGGGUA the figure was 0.03.
As for GUUAACGGUCAUAGGCCAUGGAAACUAGGGGCACCAUUUCGCUGCCAGUGAAGAAAUGAACAAAGAAAAUCUGGGCCAGGCAGGCAUCAAAAGAAAUAGUCUUGCGCUCAACCAGGAAGUCUGUAAUCAUUUUAAGGGUA, the self-cleavage is 0.66.
For the variant GUUAACGGUCAUAGGCCAUGGAAACUAGGGGCACCAUUUCGCUGCCUGUGAAGAAAUGAACAAAGAAAAUCUGGGCCAGGCAGGCAUCAAAAGAAAUAGUCUUGCGCUCAACCAGAAAGUCUGUAAUCAUUUUAAGGGUA, the self-cleavage was found to be 1.27.
